Entries after “also recorded” stand apart in the source; their conditions may differ. Where two headings read alike, the source gives them in different places.
Tests used:
[1] = Observation of appearance with the naked eye (physical stability); assay type: physicochemical
Description: Each buffer was also designed to have 4 salt concentrations.
(§1) If there was evident precipitation or turbidity, no further determination would be carried out. If the samples had no abnormal phenomena observable with the naked eye, the samples were taken and subjected to determination of absorption values at 360 nm and HPLC detection, wherein the former investigated the physical stability, and the latter investigated the chemical stability.
The solutions were mixed uniformly, filtered through a 0.22 μm filter membrane, dispensed into 2 mL Penicillin bottles, and placed at different temperatures for investigation. A series of sampling time points were arranged. After sampling, the samples were firstly observed with the naked eye for appearance.
The solutions were adjusted to pH 3.5-4.0, mixed uniformly, filtered through a 0.22 μm filter membrane, dispensed into 2 mL Penicillin bottles, and placed at different temperatures for investigation. A series of sampling time points were arranged. The samples were firstly observed with the naked eye for appearance. If no evident turbidity or gelatination was occurred, the sample was considered as qualified as for physical stability, and then subjected to HPLC detection to analyze the chemical stability.

[2] = Absorption values at 360 nm (physical stability); assay type: physicochemical; conditions: for Absorption values at 360 nm: 8 days
Description: as §1
Absorption values determined at a wavelength of 360 nm were compared, so as to compare differences in physical stability among the samples. A higher absorption value indicated poorer physical stability.

[3] = Thioflavine T fluorescence value (gelatination, physical stability); assay type: physicochemical; conditions: 35 days
Description: A monitoring method for physical stability of the pH value was the fluorescence value, that is, thioflavine T was added into the sample at a final concentration of 5 μmol/L, then the fluorescence absorption value was determined (at an excitation wavelength of 435 nm, and an emission wavelength of 485 nm). The higher the absorption value is, the severer the gelatination phenomena of the sample is, and the poorer the physical stability is.

[4] = Long-term stability of GLP-1 formulations by HPLC; assay type: physicochemical
Description: The GLP-1 purity was determined by comparing the GLP-1 peak area with the total peak area.

[5] = WO00/37098, cited from earlier work

Substance: Glucagon-like peptide 1 [GLP-1]
- Situations of samples after preparation ([1]; 20 mmol/L Na2HPO4-NaH2PO4 pH 7.0, NaCl 0 mmol/L): Clear and transparent
- Situations of samples after preparation ([1]; 20 mmol/L Na2HPO4-NaH2PO4 pH 7.0, NaCl 20 mmol/L): Clear and transparent
- Situations of samples after preparation ([1]; 20 mmol/L Na2HPO4-NaH2PO4 pH 7.0, NaCl 150 mmol/L): Clear and transparent
- Situations of samples after preparation ([1]; 20 mmol/L Na2HPO4-NaH2PO4 pH 7.0, NaCl 500 mmol/L): Clear and transparent
- Situations of samples after preparation ([1]; 20 mmol/L Na2HPO4-NaH2PO4 pH 7.5, NaCl 0 mmol/L): Clear and transparent
- Situations of samples after preparation ([1]; 20 mmol/L Na2HPO4-NaH2PO4 pH 7.5, NaCl 20 mmol/L): Clear and transparent
- Situations of samples after preparation ([1]; 20 mmol/L Na2HPO4-NaH2PO4 pH 7.5, NaCl 150 mmol/L): Clear and transparent
- Situations of samples after preparation ([1]; 20 mmol/L Na2HPO4-NaH2PO4 pH 7.5, NaCl 500 mmol/L): Clear and transparent
- Situations of samples after preparation ([1]; 20 mmol/L NaAC-HAC pH 3.0, NaCl 0 mmol/L): Clear and transparent
- Situations of samples after preparation ([1]; 20 mmol/L NaAC-HAC pH 3.0, NaCl 20 mmol/L): Clear and transparent
- Situations of samples after preparation ([1]; 20 mmol/L NaAC-HAC pH 3.0, NaCl 150 mmol/L): Clear and transparent
- Situations of samples after preparation ([1]; 20 mmol/L NaAC-HAC pH 3.0, NaCl 500 mmol/L): Clear and transparent
- Situations of samples after preparation ([1]; 20 mmol/L NaAC-HAC pH 3.5, NaCl 0 mmol/L): Clear and transparent
- Situations of samples after preparation ([1]; 20 mmol/L NaAC-HAC pH 3.5, NaCl 20 mmol/L): Clear and transparent
- Situations of samples after preparation ([1]; 20 mmol/L NaAC-HAC pH 3.5, NaCl 150 mmol/L): Clear and transparent
- Situations of samples after preparation ([1]; 20 mmol/L NaAC-HAC pH 3.5, NaCl 500 mmol/L): Turbid
- Situations of samples after preparation ([1]; 20 mmol/L NaAC-HAC pH 4.0, NaCl 0 mmol/L): Clear and transparent
- Situations of samples after preparation ([1]; 20 mmol/L NaAC-HAC pH 4.0, NaCl 20 mmol/L): Clear and transparent
- Situations of samples after preparation ([1]; 20 mmol/L NaAC-HAC pH 4.0, NaCl 150 mmol/L): Clear and transparent
- Situations of samples after preparation ([1]; 20 mmol/L NaAC-HAC pH 4.0, NaCl 500 mmol/L): Turbid
- Situations of samples after preparation ([1]; 20 mmol/L NaAC-HAC pH 4.5, NaCl 0 mmol/L): Difficult to filter
- Situations of samples after preparation ([1]; 20 mmol/L NaAC-HAC pH 4.5, NaCl 20 mmol/L): Difficult to filter
- Situations of samples after preparation ([1]; 20 mmol/L NaAC-HAC pH 4.5, NaCl 150 mmol/L): Difficult to filter
- Situations of samples after preparation ([1]; 20 mmol/L NaAC-HAC pH 4.5, NaCl 500 mmol/L): Difficult to filter,; also recorded: turbid
- Situations of samples after preparation ([1]; 20 mmol/L NaAC-HAC pH 5.0, NaCl 0, 20, 150, 500 mmol/L): Turbid or precipitated
- Situations of samples after preparation ([1]; 20 mmol/L citrate sodium-citric acid pH 5.5, NaCl 0, 20, 150, 500 mmol/L): Turbid or precipitated
- Situations of samples after preparation ([1]; 20 mmol/L citrate sodium-citric acid pH 6.0, NaCl 0 mmol/L): Precipitate sticking
- Situations of samples after preparation ([1]; 20 mmol/L citrate sodium-citric acid pH 6.0, NaCl 20 mmol/L): Precipitate sticking
- Situations of samples after preparation ([1]; 20 mmol/L citrate sodium-citric acid pH 6.0, NaCl 150 mmol/L): Precipitate sticking
- Situations of samples after preparation ([1]; 20 mmol/L citrate sodium-citric acid pH 6.0, NaCl 500 mmol/L): Precipitate sticking
- Situations of samples after preparation ([1]; 20 mmol/L citrate sodium-citric acid pH 6.5, NaCl 0 mmol/L): Turbid
- Situations of samples after preparation ([1]; 20 mmol/L citrate sodium-citric acid pH 6.5, NaCl 20 mmol/L): Turbid
- Situations of samples after preparation ([1]; 20 mmol/L citrate sodium-citric acid pH 6.5, NaCl 150 mmol/L): Turbid
- Situations of samples after preparation ([1]; 20 mmol/L citrate sodium-citric acid pH 6.5, NaCl 500 mmol/L): Turbid
- Appearance of the sample ([1]; pH 3.0): no turbidity or precipitation
- Appearance of the sample ([1]; pH 3.5 and pH 4.0, 0.5 M NaCl): turbidity
- Appearance of the sample (no determination carried out) ([1]; pH 4.0, NaCl 29.22 mg/mL): Samples became turbid after formulation.
- Appearance of the sample prepared ([1]; pH 4.5): clear and transparent
- Appearance of the sample (no determination carried out) ([1]; pH 4.5, NaCl 29.22 mg/mL): Samples became turbid after formulation.
- Appearance after formulation and heating treatment ([1]; pH 4.5, high salt concentration): turbidity
- Appearance while the GLP-1 sample was prepared ([1]; pH 5.0 to 6.5): turbidity or precipitation
- Appearance of the sample (no determination carried out) ([1]; pH 6.5, NaCl 0, 1.17, 8.77, 29.22 mg/mL): Turbidity was generated after formulation and
- Appearance ([1]; pH value between about 4.5 and 6.5): turbidity or precipitation
- Absorption values at 360 nm ([2]; pH 3.0, NaCl 0 mg/mL, 35° C.): 0.0706
- Absorption values at 360 nm ([2]; pH 3.0, NaCl 0 mg/mL, 45° C.): 0.0844
- Absorption values at 360 nm ([2]; pH 3.0, NaCl 1.17 mg/mL, 35° C.): 0.0716
- Absorption values at 360 nm ([2]; pH 3.0, NaCl 1.17 mg/mL, 45° C.): 0.0724
- Absorption values at 360 nm ([2]; pH 3.0, NaCl 8.77 mg/mL, 45° C.): 0.1812
- Absorption values at 360 nm ([2]; pH 3.0, NaCl 29.22 mg/mL, 35° C.): 0.2052
- Absorption values at 360 nm ([2]; pH 3.0, NaCl 29.22 mg/mL, 45° C.): 0.2417
- Absorption values at 360 nm ([2]; pH 3.5, NaCl 0 mg/mL, 35° C.): 0.0684
- Absorption values at 360 nm ([2]; pH 3.5, NaCl 0 mg/mL, 45° C.): 0.0689
- Absorption values at 360 nm ([2]; pH 3.5, NaCl 1.17 mg/mL, 35° C.): 0.0694
- Absorption values at 360 nm ([2]; pH 3.5, NaCl 1.17 mg/mL, 45° C.): 0.0823
- Absorption values at 360 nm ([2]; pH 3.5, NaCl 8.77 mg/mL, 35° C.): 0.1882
- Absorption values at 360 nm ([2]; pH 3.5, NaCl 8.77 mg/mL, 45° C.): 0.1780
- Absorption values at 360 nm ([2]; pH 4.0, NaCl 0 mg/mL, 35° C.): 0.0686
- Absorption values at 360 nm ([2]; pH 4.0, NaCl 0 mg/mL, 45° C.): 0.0843
- Absorption values at 360 nm ([2]; pH 4.0, NaCl 1.17 mg/mL, 35° C.): 0.1354
- Absorption values at 360 nm ([2]; pH 4.0, NaCl 1.17 mg/mL, 45° C.): 0.1448
- Absorption values at 360 nm ([2]; pH 4.0, NaCl 8.77 mg/mL, 35° C.): 0.1907
- Absorption values at 360 nm ([2]; pH 4.0, NaCl 8.77 mg/mL, 45° C.): 0.1974
- Absorption values at 360 nm ([2]; pH 4.5, NaCl 0 mg/mL, 35° C.): 0.1326
- Absorption values at 360 nm ([2]; pH 4.5, NaCl 0 mg/mL, 45° C.): 0.1370
- Absorption values at 360 nm ([2]; pH 4.5, NaCl 1.17 mg/mL, 35° C.): 0.1655
- Absorption values at 360 nm ([2]; pH 4.5, NaCl 1.17 mg/mL, 45° C.): 0.1814
- Absorption values at 360 nm ([2]; pH 7.0, NaCl 0 mg/mL, 35° C.): 0.0813
- Absorption values at 360 nm ([2]; pH 7.0, NaCl 0 mg/mL, 45° C.): 0.0828
- Absorption values at 360 nm ([2]; pH 7.0, NaCl 1.17 mg/mL, 35° C.): 0.0864
- Absorption values at 360 nm ([2]; pH 7.0, NaCl 1.17 mg/mL, 45° C.): 0.0865
- Absorption values at 360 nm ([2]; pH 7.0, NaCl 8.77 mg/mL, 35° C.): 0.0824
- Absorption values at 360 nm ([2]; pH 7.0, NaCl 8.77 mg/mL, 45° C.): 0.0841
- Absorption values at 360 nm ([2]; pH 7.0, NaCl 29.22 mg/mL, 35° C.): 0.0850
- Absorption values at 360 nm ([2]; pH 7.0, NaCl 29.22 mg/mL, 45° C.): 0.0862
- physical stability ([2]; pH 7.0 and 7.5): normal
- Absorption values at 360 nm ([2]; pH 7.5, NaCl 0 mg/mL, 35° C.): 0.0807
- Absorption values at 360 nm ([2]; pH 7.5, NaCl 0 mg/mL, 45° C.): 0.0859
- Absorption values at 360 nm ([2]; pH 7.5, NaCl 1.17 mg/mL, 35° C.): 0.0799
- Absorption values at 360 nm ([2]; pH 7.5, NaCl 1.17 mg/mL, 45° C.): 0.0937
- Absorption values at 360 nm ([2]; pH 7.5, NaCl 8.77 mg/mL, 35° C.): 0.0846
- Absorption values at 360 nm ([2]; pH 7.5, NaCl 8.77 mg/mL, 45° C.): 0.0902
- Absorption values at 360 nm ([2]; pH 7.5, NaCl 29.22 mg/mL, 35° C.): 0.0861
- Absorption values at 360 nm ([2]; pH 7.5, NaCl 29.22 mg/mL, 45° C.): 0.0942
- Fluorescence value ([3]; pH 3.6, NaCl below 20 mmol/L, 35° C.): 9.95
- Fluorescence value ([3]; pH 3.7, NaCl below 20 mmol/L, 25° C.): 9.11
- Fluorescence value ([3]; pH 3.7, NaCl below 20 mmol/L, 35° C.): 14.55
- Fluorescence value ([3]; pH 3.8, NaCl below 20 mmol/L, 25° C.): 11.01
- Fluorescence value ([3]; pH 3.8, NaCl below 20 mmol/L, 35° C.): 31.58
- Fluorescence value ([3]; pH 3.9, NaCl below 20 mmol/L, 25° C.): 26.46
- Fluorescence value ([3]; pH 3.9, NaCl below 20 mmol/L, 35° C.): 78.27
- Fluorescence value ([3]; pH 4.0, NaCl below 20 mmol/L, 25° C.): 59.32
- Fluorescence value ([3]; pH 4.0, NaCl below 20 mmol/L, 35° C.): 113.18
- Fluorescence value ([3]; pH 4.1, NaCl below 20 mmol/L, 25° C.): 139.48
- Fluorescence value ([3]; pH 4.1, NaCl below 20 mmol/L, 35° C.): 157.00
- storage duration ([4]; 2 to 8° C., composition pH about 3.5 to 5.0): ≥ 2 years
- storage duration ([4]; 4° C., GLP-1 concentration up to 2 mg/ml, preservative added): 2 years
- physical stability ([5]; between pH 6.8 and 7.5): poor
- chemical stability ([5]; pH value greater than 8.8): reduced
- appearance of the formulation ([5]; pH value less than 8.0 after the addition of a preservative): turbid

— patent US20160235855A1, “STABLE AQUEOUS PARENTERAL PHARMACEUTICAL COMPOSITIONS OF INSULINOTROPIC PEPTIDES” (SHANGHAI BENEMAE PHARMACEUTICAL CORPORATION, priority 2013, published 2016)
